The values below come from a protein production outcome set (Wang et al. 2014).

The nature of this data set: label from the status in PepcDB records.

Consider “MLSVFLEIIYERQLRKINLKILTDFINLIKEESLSNGAEFIQVQGGFYFLFKKKSIAYAFSTARFLYNVNKILISYKNKISEVRCITDYYEEDVSNEALFESLSLYKKQLIPEMGMFASREAANKLSKYIDFNETDSSILLCNAFKFFENINLTSNKNADKNASIILHRNDNYFWSIYNFILANPLDNDSLKAMSNEDRISFLATKNVYIYLKKHRFSKDMPQYFIDAFLTNAAIYLKNYIKKQNGRRSVKVLIDNLNDKKNLDEAEKIYAVNKYMEIEALDSSLPSIYNIPDDLLQLIYIILVSSKYFFYDEITDFLVSLNKSKAFFDDVYAWMYSMGIILVENNIYAVPYGLPEIIERRINLSKNMVDSNITEYLWAKYKKGILNANSDAEKIFDSLNFKCKPDFLLASIFHNYSDSSIEGLDLKKYKNEIFYDALKYYQNSIIANIDDSTAKSYAYLKTAIGFFQENKLESGEYRAFSLLAFFNLMQNKISDAITYFSYALDNAEHSHDTSFICDALFNISIVYFLQNNLKQSITFLDRLAAAVDEYFEQDWKIPYLFMKGRVYLQIGEFNKAADSFRMASDFADLYFDKIEPLCKSWYGRSLIYMGQIKNGQEILIKYIDYTDDALLFLLESFLFYPVLNNDFEKMDLDISSIYSAYNNSGLTDFINLKSGFSIAEDLIWSNIYDMSIGKKMFDAFYNYYNCKINFSKMYDIEECKILLSNLEASAVESLYQNDPYSSLYMYLCYDLSVKLYGENSSQTIAYLSKAFKSMQKNVLAIGENDIRDKYMQNNLWNSKLFKVAKNQKLI”, for which the protein production entry is on record as “failed”.

As for “MLSYDIEVLKIINDEDNISQRRLAEMLNISLGKINSLLKELLTKEYIVKIDIDKRNVKYELTEAGIALLENSLDKVKSTKLSIHKHKFHKVKQAVILGAGGKGDFGKPAGFLELEEFRIIDRIIDILKSNGIEKIVIVNGYKKEYYEELAEKDSTIFCVTNSNYKWTGTMSSLALAKEYIDDDFILVENDLVFESRAVEQIIKNDNRDCVLITNESGSGDEAFVEIRDGYLFKMSKDVHQFNKIDGEMIGISKISYKLFKMMLEEFKHNINPYMNYEYTMLDVARNYKVGYEKINDLVWGEIDNKDQYEKVKKHIIPMIRRKEMQYKIDQVKSAIVNGLKVSEEEVKEIVPVGGMTNKNYKAFVNDKAYIVRIPGLGTSSMINRRDEMINSKLAADEGIDAKILFFDEESGVKIAELIEGAETLNPATAKKKENMELVVGALRTLHNSEIKMENRFNVFEKIEDYESLVKKVSGTLFEDYYEIKTRVLKLEKVLEDNGMEIKPCHNDTVPENFVKDINERMYLIDWEYSGLNDPMWDLAAHSIECDFSEDDEELFLNLYFNNLIEDKHKIRILVYKICQDFLWSIWTILKEAQGDDFGTYGIDRYNRGKKNLELLDKILMGQ”, the protein production result was “failed”. With “MLSYDLNERLLTAVQSGDFEQALGCIMQGAQASYVSPTCGRTAVGTAAILGDAELLELLLQSCEEPELNVFHQSNTDSLEIERTPEGMEKLEWVDEFENSAENGAGSGEEDSQLYQYYAKTFETTGEFISSQCCVSCREHDPHLYDADVATPLHYAAYWGHEECVRILLEHNAPINVLNNDGYAPLHLGAGFAGVTELLIKHGALVNAKTLSDGKTALHMAIESKCAESARLLLQTNININDTDDDGETPLMAAIACSMLDVAEELVKRGARINIQDKQNHTALQYAVRGRHTQMAKLLLERGARRLASQHLLHLAVESNVKELVELLLQYGESLSVWNLKNFTPIMLAIHRGRHEMLEYLLNVAEEQRKLGLYSDVHDEGLVLFAVQQNFWVKEFSRILRVLLAKSPSARNDFYDSCAPTIVCGLIYCHTPLSRAINLHRLEVAEFLIHEGCNLAQICREHVVNELRSNCTPTRLAFARLLCNAGFQFPHKHRPLPKDWPPARLEFEREMCLLGTQPRSLQSLARLEIRRSLLRCLQTRPEVQERYLPTQERSSLGRIVDEFAIPATLKRYLSDFDELPPVRGMEPVDIPVVKWTESWD” the entry was “failed”; with “MLSYKHSNATLPILWGEAKRGDFDDLDKAFTQLLLTIGKHRLYTHHTPPYLCAFNAFKMEFIAFDDTITSFFYKSDIDFSITPSNHNTEGFKHALDAFKAMSKSHKFVFDFKTQSQECKEFIKNRLNSSHLLSKIQIDKNNFFTIYQKWLEIVKPTIDINWEVAKTKDILDADYYLADLLSDGDKTIIEKLHTILRSSHYKLNRGVNELGKMDFMEVGFTDSQQAHQEFWSVYERPPKREFQASILERRDLLVPSDVRERKGAFFTPKIWVEKSQEYLAKALGQDYQEDCIIWDCAGGTGNLLRGLLNKANLYLSTLDHNDVAIVKDLAAKNHLKLLENHVFQFDFLNDDFFSDKTPKSLQEILKDKEKRKKLIIYINPPYAEAGNKSKMSGTGEHKAKVARDNLICEKYKNELGKANNEVFAQFFMRIYKELNGVILASFSTLKNLQGSNFKKFREIFKAKFLEGFMVPADTFDNVRGQFPIGFLVWDTSSILPKENPLNLGGNSKEEKQNSNLILDQDNLKDNPLKERFCLLDINAPNRKMCSQSRTRTKGTQKHSTAAPFETPLHTVSLEIFDSFGGFLGSKKIYTHTIDKMLTLADYLQKFQPTKRDTIFGYLDPGRNSFQHQNLIHISIIDKSKQSHVKYFPIIATTILLVSVFFSIRHCIKATWQNDRDQFYAPYDDAFQDDSEFKNNCLIFMLFHTQNRITTAQGTNHFIPFSETEVNAKERYSSHALLEFLKGEIKELKENDSLFLSAKKENKPLKFSPSASKVFDASREVYRYYHTQDFTNRPYNANASLYDIKEFFQGRNKQGKLNLPAKAKDEYYKQLYANLQDALKDLAKEIQPKVYEYGFLRE”, “failed”; with “MLTDRELLILEEIVREYTENGQPIGSKTLMNNLPVKVSSATIRNDMAKLEEMGLIEKMHSSSGRIPSLMGYRYYVDHLLSPKKLNQSEAQQIQKGLGMHFREVDDIVRTSAEMLSNLTHYTALTLKPDQKDATLDGFRMVPLGGNQVMLILVSSNGDVTSQQFSIPRGMNSETVERVLRIMNDRLIGETLDQVYYHLKTDIPKIVEHYLHSNDGIIDIFENVVAQSSQDRYFIGGKLNILNFSKNVDVSSIRGLLTLFNENDQLDGLLGNNQSDLDVKIGDELSNALLKDFSLITATYDVGSRGKGLIAILGPTSMQYSKTLGLLDTFRDQLSNRMLEYYKHLDDS”, “failed”. Take “MLTENYNKQAIAQAFGRAAGCYDRFAELQRTSGERLLALMPAHSGLQVLDAGCGTGHFSRYWRQAGRNVTALDLSAEMLAYAREQHAADRYLEGDIENLPLADSCVDICYSNLAVQWCDSLPRALGELYRITRPGGVIAFATLADGSLSELSQAWQRLDGTQRTNRFLPHSVIDAACQPYRHHLLQEREVCLFPDVLALMKSLKGIGATWLHEGRTPGLLSRARLAALSACYPQEQGGYPLSYQLVYGVIYRDLEHHHHHH”: the protein production result is on record as “failed”. Turning to “MLTGIGAIVFDLDGTLYQSESLGGQIAACADRYLADLLSVSPEEAGEIVRRVRRELTARFGREASLSDACRELGGDLRELHRRFAAEVAPEPHLRRDSRVVQLLRTLGANRELYLYTNNNRALSGRIMDAIGVTGLFRRVVTIEDSWRPKPDLQALEALFAALGRKPSECLFVGDRYDIDLRLPAELGCSVYLSRTVDELLGLTLPLSEEQQ”, the protein production entry was “failed”. With “MLTIREIQSLVHKGEPGQWSHTKALYFFIAPSGRPFWAIRYMLKGRRRQMSLTDSIPATVRELKQIELLSETEREKVRKGIDPLAEREAAKAASPEPVRQLVTFKSVALDYIAANRGGWKNAKHVQQWENTLATYVYPVIGHLEPQSITTAEVLKILQPLWATKRETASRVRSRVETIIGAAKAKGMSEKPEIWANHHNPARWADNLEFWLNGKQEKNHFSAMPYPEIPAFAQSIAEREDYSTKALQFLILTATRTNETLGAEWSEIDTEKAVWTIPASRMKSGKEHRVPLSSEALKLVASLLRIEGNPYLFPGAIRNKSLSNMALLMVMRGLKLGHYVPHGFRSAFRDWAAEETVYPNHIVEMALAHTIKNKVEAAYRRGDLMEKRRQLMEDWSAYLASAR” the entry was “failed”. Turning to “MLTKFKSLPKAVYAILALSFLLHVFCLVKQPGLDGELVKVTYGANDAFNYSLTAEQLLKHGVFGYVYLEPSEVPGKNAYITPGQPLLLAGAMIISDITSIPYYYVATVINMIMNLCTVLLVFLIGKELFEKNIYGIVASILYAIYPSNYTYFRTLLTEVPSIFLLALCVYVFVLAWKYNKVKFHIWFGIVVSILLMFRPNPAPMMLIPVLVVLFTYGFKDSIRIGLLWFIGPFFIIGAWVVRNYLALNQFILFSTQGADPLIAGADPFNKIGYENIVNEMRAKGLDDKGAYAKELIKNGFKTDFTYWFSWFTVGKTIELFKTAPAVDQYRIHNFMQLCHRVFIIGTFLSSFCFMLNSFKHKRVMMLVASSIIYIIFSNLFLAINRYGFFINPLMCLILAYGLIHIVQKLPFFRTNQA”, the protein production entry was “failed”. With “MLTNPTYGLTLHAQGPVPAEVFPLPTPPRSSRVPASTNRGGPPPQRGGPRPSGRPPRPPVRRKKPRWAMRAVTALSVVVLASAGIGHAVLSSLDSDISRFDAFKDMKNRPRAGDGMNVLMVGTDGRDEITEEERRKYRLGGAPCHCTDTIMIVHISEDRERASVVSLPRDSYAETPGHTDRTTGEHHKGHPIKLNAAYAEGGPQLTIRTVENMTRVKIDHYLEVDFTSFMKTVDVLGGVRICTVQPLKDSYTGLDLPAGSHTLMGGQALQYVRARHLDGASDLSRMKRQQRFLAALIDRATSSGILLNPLKFRDVTRAVLGSVRADQGFGTDELLTLGRAMRNFSPSSSEFTTVPIGQMGYAVKGVGSTLKWDPAKSERLFDALREDEPLAAPKPKGPAPVRVPVDPKQIRVQVENGTRTSGLGKRVDDALAATGFRTTRAPRNAEDRAVGRTVVAYDPRWDQSAKSLAAALPGSELKPVKGQGATLKVIAGADFEKVAKVRPADPPQESGTVVRGDEVVCGKE” the entry was “failed”. With “MLTNSINYSELSDVAAFVCVVQTGSFTAAAEQLNTSKSVISKYITRLEKRLGVKLLARTTRRLTLTEIGRTFYEGSRQGLEAIDNAEEAVSFLQGKPRGTLKINAPLSFGALHIAPALEEFIHRYPEMQIDLRFDDKKIDMIKDGFDLTVRITHQLEGNLIARRIAPCHHALVAAPNYLAKRGTPKRPEDLVAHNVITYQYQQSPWEWEFTAAKSKPKRVRVNGSVQMNNSLAIREAVLAGVGISRMPTFAVGEDIKSGRLIQLLPKYSLLEHSIYLVFPERNHMAPKTRAFIDYMVKIMEGKPSWDRF” the entry was “failed”; with “MLTNVVAVLLDGVHPFELGVVCEVFGIDRSDEGLPVYEFAVASAEGPTLRTHAGFSLRTEHGLERLETADLITLPAGNSYVSRGYPPELLDALRRAVDRGARLLSVCSGVFVLGAAGLLDGRRCAVHWHHADELARQYPKAIVEPDVLYVDEDPVITSAGTAAGIDACLHIVRKEQGPEVANAIARRMVVPPHRDGGQAQYIERPLPRSPCDTVGEVLVWMEQHLDEEVTVEQLAARAHMSPRTFARRFQQETGTTPYRWILRQRVLLAQRLLEVTDETMDAIAGRTGFGTAAALRHQFVRSLGTTPNAYRRTFRGPATGPLGLAG”, “failed”; with “MLTPRFDIQPAVSVILPTFDRAPLLASAIESVVAQNFAEWELIVVDDGSSDETFEIVDGYLNQHANIRYMKHRNRKAALSRNAGIQAAFGRYITFLDSDDLYLPEHLESRLHLLESMPEVRLISGGFVCEGDPWVRDRDDPEKLIHVSECIAGATMFGRRELFLDIGGFRALDYAEDTDLWERAARSHKVLKIDQPVSYIYRRSPGSITRTYKPAKPLEHHHHHH”, “not failed”.

As for “MLTQANIPSWYEGLNKSGLTPPGPVFSIVWSILYALLAIVGWVLWCSRNESEMRSVFYLYSVQMLMNWAWTPLFFVLHWTGLSFLWILVMAGLTGLLMFSQTNKKKSLAILLLPYLIWLLFAAYLNGVIWLLN”, the protein production result is “failed”. With “MLTQFLNLLATIISVISLLIVTYGALIAIISFIINELKRVTGAYTPTNIRKLRAVFGTYLLLGLEFLIASDILKTVLEPTMNELIILGGIVVVRTILSVFLNKEIKELETENN” the entry was “failed”; with “MLTQTLDSPSGAKRLRVMSRHEREPVSQSKTDFSQQTRWMLAVRDNRDRLAFAALFDHFAPRLKGFVIRSGTPAHQAEEIVQDVMLTIWRKAAMFDPHRAQVSAWIYQIARNRQIDIARKENRPMPEELKEEPGTEPDASQILGLEQEAGQLKQALANLKPEQREIIEKAYLGELTHQEISAQTGLPLGTIKSRIRLGLERLRYELKDLKQ”, “failed”.
